The data set deals with the molecule itself. The data set can be described thus: SEC-MALS; 50 µl at 1.5 mg/ml on a Shodex PROTEIN KW-804 column, 0.4 ml/min, 150 mM KCl, 20 mM Tris-HCl pH 8.2. On the technique in general: In gel filtration, larger molecules generally elute earlier.

B1: Maintenance of carboxysome distribution protein B (McdB) from Synechococcus elongatus PCC 7942, wild type (natural protein, UniProt Q8GJM6 1-152, looked up)
chain: MTDAFDRLKKRSRTPIAREGSLTTGPELSDRPLQLLPREFETFCDRYAVHAGDVIEAALDLVLLDPDLQQRLLQRLRQGNGSDRVWLGTACPRSWQQQLQQQAQDQGLSEADLLQEAIAQRLDLVLGQTTLREEVTLLRQELDQLKRKLHGW
notes: McdB of Synechococcus elongatus PCC 7942; also called Se McdB; β-McdB; source: E. coli BL21-AI, purified (HisTrap, Ulp1 cleavage, SEC); not shown: His-SUMO, N-terminal, cleaved
Broadly, the stoichiometry N is a count of units in the complex or per binding partner. B1: the “stoichiometry N” value was 6.

B2: Se McdB[∆W152] (natural protein, Synechococcus elongatus PCC 7942, UniProt Q8GJM6 1-152, looked up)
chain: MTDAFDRLKKRSRTPIAREGSLTTGPELSDRPLQLLPREFETFCDRYAVHAGDVIEAALDLVLLDPDLQQRLLQRLRQGNGSDRVWLGTACPRSWQQQLQQQAQDQGLSEADLLQEAIAQRLDLVLGQTTLREEVTLLRQELDQLKRKLHG
notes: McdB of Synechococcus elongatus PCC 7942 with the final C-terminal tryptophan W152 deleted; Parent is m1; source: E. coli BL21-AI, purified (HisTrap, Ulp1 cleavage, SEC); not shown: His-SUMO, N-terminal, cleaved
As for B2, the “stoichiometry N” value is 6.
